Results on 2 substances are retold here after publication doi:10.1101/2024.05.03.592134.

In test [1] the target is Bxy_22780 E350G mutant (nucleophile mutant) (Bacteroides xylanisolvens). The test is described as follows: crystal structure.
The target in test [2] is Bxy_22780 wild-type (β-1,2-galactosidase from Bacteroides xylanisolvens, GH35) (Bacteroides xylanisolvens). The test is described as follows: crystal structure.

By stoichiometry N is commonly meant a count of units in the complex or per binding partner.

The substance “Bxy_22780 E350G mutant (nucleophile mutant) (enzyme)” displayed a stoichiometry N in test [1] of 4. Take “Bxy_22780 wild-type (β-1,2-galactosidase from Bacteroides xylanisolvens, GH35) (enzyme)”: in test [2], the stoichiometry N was determined as 4.
